In patent publication US7012128B2, “Interaction between cyclin D1 and steroid receptor co-activators and uses thereof in assays” (TopoTarget UK Limited, priority 1998, dated 2006):

How the values were obtained:
Format in all cases: cell-based
[1] = test system: wild type ER; assay: ERE-TATA-luciferase transactivation of wild type ER in COS-7 cells; settings: COS-7, 3 μg SRC1-DN, 10 nM ligand
Description: FIG. 1. Mapping of the region of cyclin D1 required for ER-mediated transactivation. • (A) The effect of cyclin D1 deletion mutants on ER activation in the presence of ligand. The cyclin D1 derivatives used in this study are shown in the left panel; right side of Figure represents the relative capacity of the mutants to potentiate ERE-dependent transcription. ER-negative COS-7 cells were transfected with expression vectors for wild type ER (200 ng), cyclin D1 or cyclin D1 mutants (2.5 μg), an internal control §-galactosidase plasmid (0.5 μg) and an ERE-TATA-luciferase reporter (3 μg). The effect on ER transactivation of wild type cyclin D1 was set to 100%. These studies were performed in three separate experiments and expressed as mean values with standard deviation less then […]. The alignment of leucine-rich motif of ER with D-type cyclins are shown on the bottom; the leucine-rich motif in cyclin D1 is indicated as a dark box. The identifiers for the sequences shown are as follows: Cyclin D1 (SEQ ID NO:11), Estrogen receptor (SEQ ID NO:12), the Cyclin D2 (SEQ ID NO:13), and the Cyclin D3 (SEQ ID NO:14). • (B) ER activation by D-type cyclins, cyclin D1 L254/255A point mutant (D1-LALA) and SRC-1 in the presence of ligand. COS-7 cells were transfected with D-type cyclin expression vectors, cyclin D1 Leucine-to-Alanine point mutant (D1-LALA) or SRC-1 expression vector together with wild type ER expression vector, an ERE-TATA-luciferase reporter plasmid and the internal control β-galactosidase construct. Data are expressed as relative luciferase activity compared with basal ERE-luciferase activity of wild type ER and are normalized for transfection efficiencies.
FIG. 3. Role of coactivators in cyclin D1—induced transactivation. • (A) Effect of a dominant negative form of SRC-1 (SRC1-DN) on ER transactivation. SRC1-DN encoding amino acids 1245-1441 of SRC-1 (1, 2.5 and 5 μg) was introduced by transient transfection together with wild type ER (200 ng) and was tested for its ability to modulate ERE-dependent transcription. • (B) Effect of SRCI-DN on SRC-1 and TIF 2 mediated ER transactivation. SRC-1 (3 μg) or TIF-2 (3 μg) were transfected with SRC1-DN (3 μg) and tested for ER transactivation. • (C) Effect of SRC1-DN on cyclin D1-induced transactivation of ER 1-535 mutant. Cyclin D1 was cotransfected with SRC1-DN (1, 2.5, 5 μg) and tested for its effect on an ER harboring a deletion of coactivator binding site in helix 12 (ER 1-535). • (D) Effect of SRC1-DN on cyclin D1-induced transactivation of ER L543/544A mutant. Cyclin D1 and SRC1-DN (1, 2.5, 5 gg) were transfected and tested for the activity of ER helix 12 point mutant (ER L543/544A). The transient transfections (A-C) were performed in COS-7 cells, which were maintained in DMEM with 10 nM ligand. The relative activity was calculated by normalizing to the internal control and was divided by luciferase activity of ER (mutant) in the presence of ligand. The transfection for each set of conditions were done at least in four independent experiments and expressed as average ±SD.
To study how cyclin D1 activates ER, cyclin D1 deletion mutants were tested for their effect on ER-transactivation. COS-7 cells were transfected with cyclin D1 mutants, together with ER and a luciferase reporter gene construct driven by a minimal TATA promoter linked to an estrogen response element (ERE). […] This part of the protein is not involved in CDK interaction and is poorly conserved among the different cyclins. […] To test the relevance of this leucine-rich domain of cyclin D1 in ER activation, a cyclin D1 mutant was constructed in which leucines 254 and 255 were mutated to alanines (D1 L254/255A). This mutation in cyclin D1 is similar to the mutation in ER (ER L543/544A) that interferes with coactivator binding to AF-2 (Danielian et al., 1992). […]

[2] = test system: ER 1-535 and ER L543/544A mutants; assay: ERE-TATA-luciferase transactivation of AF-2 mutant ERs in COS-7 cells; settings: COS-7, 1, 2.5, 5 μg SRC1-DN, 10 nM ligand
Description: FIG. 2. Effect of cyclin D1 on helix 12 mutants of ER. The effect of cyclin D1 on ER mutants was tested in COS-7 cells (A, B) and in U2-OS cells (C, D) in the presence of ligand. An ERE-TATA-luciferase reporter construct was used in transient transfections together with cyclin D1 and ER 1-535 (A, C) or ER L543/544A mutants (B, D). β-Galactosidase served as an internal control. The reporter activity was determined both in the presence (black bars) and in the absence (white bars) of 10 nM 17β-estradiol. The relative luciferase activity was calculated by normalizing to the b-galactosidase activity. The relative reporter activity of wild type ER in the presence of ligand was used as a reference and set at 100%. […] The transfection were performed in at least five separate experiments and expressed as average ±SD.
FIG. 3. Role of coactivators in cyclin D1—induced transactivation. • (A) Effect of a dominant negative form of SRC-1 (SRC1-DN) on ER transactivation. […] The relative activity was calculated by normalizing to the internal control and was divided by luciferase activity of ER (mutant) in the presence of ligand. The transfection for each set of conditions were done at least in four independent experiments and expressed as average ±SD. […]

[3] = biological target: E2F-1 transcription factor (Homo sapiens, UniProt Q01094); assay: Effect on E2F-1 transcription factor (data not shown)
E2F-1 transcription factor, sequence (Q01094 whole entry): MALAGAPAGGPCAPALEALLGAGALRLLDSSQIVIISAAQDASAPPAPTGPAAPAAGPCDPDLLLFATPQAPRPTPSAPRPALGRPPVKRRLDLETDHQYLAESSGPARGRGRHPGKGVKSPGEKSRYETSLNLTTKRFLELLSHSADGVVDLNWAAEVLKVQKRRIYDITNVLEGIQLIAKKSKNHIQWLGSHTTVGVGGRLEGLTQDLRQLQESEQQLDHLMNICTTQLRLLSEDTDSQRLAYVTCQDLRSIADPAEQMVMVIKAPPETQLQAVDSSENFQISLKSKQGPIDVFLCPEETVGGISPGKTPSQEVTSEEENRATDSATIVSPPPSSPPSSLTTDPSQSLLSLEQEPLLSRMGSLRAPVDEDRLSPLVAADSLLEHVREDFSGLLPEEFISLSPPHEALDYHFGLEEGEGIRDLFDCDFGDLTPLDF

B1: SRC1-DN: dominant negative mutant of SRC-1 encoding amino acids 1245-1441 of SRC-1 (protein, UniProt Q15788 1245-1441, looked up, fragment)
chain: FAPSLSPGSSMVPMPIPPPQSSLLQQTPPASGYQSPDMKAWQQGAIGNNNVFSQAVQNQPTPAQPGVYNNMSITVSMAGGNTNVQNMNPMMAQMQMSSLQMPGMNTVCPEQINDPALRHTGLYCNQLSSTDLLKTEADGTQQVQQVQVFADVQCTVNLVGGDPYLNQPGPLGTQKPTSGPQTPQAQQKSLLQQLLTE
effect on SRC-1 and TIF2 mediated ER transactivation [1]: inhibited
effect on cyclin D1-induced activation of the ER AF-2 mutants [2]: markedly repressed
effect on E2F-1 transcription factor [3]: inactive
